Assay results published in patent publication US20170145113A1 (Genentech, published 2017).

B1: h15H6.v2 variant LC5 (LC-N53E) Fab (Fab, V domains shown)
VH: EVQLVQSGAEVKKPGASVKVSCKASGYTFTDSEMHWVRQAPGQGLEWIGGVDPETDGAAYNQKFKGRATITRDTSTSTAYLELSSLRSEDTAVYYCTRGYDYDYALDYWGQGTLVTVSS
VL: DIQMTQSPSSLSASVGDRVTITCRASSSVNFIHWYQQKPGKAPKPLISATSELASGVPSRFSGSGSGTDFTLTISSLQPEDFATYYCQQWSSNPWTFGQGTKVEIK
notes: Fab-Flag tag fusion from 293T cells
B2: h15H6.v2 variant LC10 (LC-F32V, LC-S92K) Fab (Fab, V domains shown)
VH: EVQLVQSGAEVKKPGASVKVSCKASGYTFTDSEMHWVRQAPGQGLEWIGGVDPETDGAAYNQKFKGRATITRDTSTSTAYLELSSLRSEDTAVYYCTRGYDYDYALDYWGQGTLVTVSS
VL: DIQMTQSPSSLSASVGDRVTITCRASSSVNVIHWYQQKPGKAPKPLISATSNLASGVPSRFSGSGSGTDFTLTISSLQPEDFATYYCQQWKSNPWTFGQGTKVEIK
notes: as for B1
B3: h15H6.v2 variant LC1 (LC-S29R) Fab (Fab, V domains shown)
VH: EVQLVQSGAEVKKPGASVKVSCKASGYTFTDSEMHWVRQAPGQGLEWIGGVDPETDGAAYNQKFKGRATITRDTSTSTAYLELSSLRSEDTAVYYCTRGYDYDYALDYWGQGTLVTVSS
VL: DIQMTQSPSSLSASVGDRVTITCRASSRVNFIHWYQQKPGKAPKPLISATSNLASGVPSRFSGSGSGTDFTLTISSLQPEDFATYYCQQWSSNPWTFGQGTKVEIK
notes: as for B1
B4: h15H6.v2 variant LC2 (LC-N31H) Fab (Fab, V domains shown)
VH: EVQLVQSGAEVKKPGASVKVSCKASGYTFTDSEMHWVRQAPGQGLEWIGGVDPETDGAAYNQKFKGRATITRDTSTSTAYLELSSLRSEDTAVYYCTRGYDYDYALDYWGQGTLVTVSS
VL: DIQMTQSPSSLSASVGDRVTITCRASSSVHFIHWYQQKPGKAPKPLISATSNLASGVPSRFSGSGSGTDFTLTISSLQPEDFATYYCQQWSSNPWTFGQGTKVEIK
notes: as for B1
B5: h15H6.v2 variant LC8 (LC-S92K) Fab (Fab, V domains shown)
VH: EVQLVQSGAEVKKPGASVKVSCKASGYTFTDSEMHWVRQAPGQGLEWIGGVDPETDGAAYNQKFKGRATITRDTSTSTAYLELSSLRSEDTAVYYCTRGYDYDYALDYWGQGTLVTVSS
VL: DIQMTQSPSSLSASVGDRVTITCRASSSVNFIHWYQQKPGKAPKPLISATSNLASGVPSRFSGSGSGTDFTLTISSLQPEDFATYYCQQWKSNPWTFGQGTKVEIK
notes: as for B1
B6: h15H6.v2 variant HC3 (HC-T28K) Fab (Fab, V domains shown)
VH: EVQLVQSGAEVKKPGASVKVSCKASGYKFTDSEMHWVRQAPGQGLEWIGGVDPETDGAAYNQKFKGRATITRDTSTSTAYLELSSLRSEDTAVYYCTRGYDYDYALDYWGQGTLVTVSS
VL: DIQMTQSPSSLSASVGDRVTITCRASSSVNFIHWYQQKPGKAPKPLISATSNLASGVPSRFSGSGSGTDFTLTISSLQPEDFATYYCQQWSSNPWTFGQGTKVEIK
notes: as for B1
B7: h15H6.v2 variant HC5 (HC-M34L) Fab (Fab, V domains shown)
VH: EVQLVQSGAEVKKPGASVKVSCKASGYTFTDSELHWVRQAPGQGLEWIGGVDPETDGAAYNQKFKGRATITRDTSTSTAYLELSSLRSEDTAVYYCTRGYDYDYALDYWGQGTLVTVSS
VL: DIQMTQSPSSLSASVGDRVTITCRASSSVNFIHWYQQKPGKAPKPLISATSNLASGVPSRFSGSGSGTDFTLTISSLQPEDFATYYCQQWSSNPWTFGQGTKVEIK
notes: as for B1
B8: h15H6.v2 variant HC9 (HC-A100aP) Fab (Fab, V domains shown)
VH: EVQLVQSGAEVKKPGASVKVSCKASGYTFTDSEMHWVRQAPGQGLEWIGGVDPETDGAAYNQKFKGRATITRDTSTSTAYLELSSLRSEDTAVYYCTRGYDYDYPLDYWGQGTLVTVSS
VL: DIQMTQSPSSLSASVGDRVTITCRASSSVNFIHWYQQKPGKAPKPLISATSNLASGVPSRFSGSGSGTDFTLTISSLQPEDFATYYCQQWSSNPWTFGQGTKVEIK
notes: as for B1
B9: h15H6.v2 variant LC6 (LC-Q89H) Fab (Fab, V domains shown)
VH: EVQLVQSGAEVKKPGASVKVSCKASGYTFTDSEMHWVRQAPGQGLEWIGGVDPETDGAAYNQKFKGRATITRDTSTSTAYLELSSLRSEDTAVYYCTRGYDYDYALDYWGQGTLVTVSS
VL: DIQMTQSPSSLSASVGDRVTITCRASSSVNFIHWYQQKPGKAPKPLISATSNLASGVPSRFSGSGSGTDFTLTISSLQPEDFATYYCHQWSSNPWTFGQGTKVEIK
notes: as for B1
B10: h15H6.v2 variant LC9 (LC-S93I) Fab (Fab, V domains shown)
VH: EVQLVQSGAEVKKPGASVKVSCKASGYTFTDSEMHWVRQAPGQGLEWIGGVDPETDGAAYNQKFKGRATITRDTSTSTAYLELSSLRSEDTAVYYCTRGYDYDYALDYWGQGTLVTVSS
VL: DIQMTQSPSSLSASVGDRVTITCRASSSVNFIHWYQQKPGKAPKPLISATSNLASGVPSRFSGSGSGTDFTLTISSLQPEDFATYYCQQWSINPWTFGQGTKVEIK
notes: as for B1
B11: h15H6.v2 variant HC1 (HC-T30K) Fab (Fab, V domains shown)
VH: EVQLVQSGAEVKKPGASVKVSCKASGYTFKDSEMHWVRQAPGQGLEWIGGVDPETDGAAYNQKFKGRATITRDTSTSTAYLELSSLRSEDTAVYYCTRGYDYDYALDYWGQGTLVTVSS
VL: DIQMTQSPSSLSASVGDRVTITCRASSSVNFIHWYQQKPGKAPKPLISATSNLASGVPSRFSGSGSGTDFTLTISSLQPEDFATYYCQQWSSNPWTFGQGTKVEIK
notes: as for B1
B12: h15H6.v2 variant LC4 (LC-N53H) Fab (Fab, V domains shown)
VH: EVQLVQSGAEVKKPGASVKVSCKASGYTFTDSEMHWVRQAPGQGLEWIGGVDPETDGAAYNQKFKGRATITRDTSTSTAYLELSSLRSEDTAVYYCTRGYDYDYALDYWGQGTLVTVSS
VL: DIQMTQSPSSLSASVGDRVTITCRASSSVNFIHWYQQKPGKAPKPLISATSHLASGVPSRFSGSGSGTDFTLTISSLQPEDFATYYCQQWSSNPWTFGQGTKVEIK
notes: as for B1
B13: h15H6.v2 variant HC8 (HC-Y100I) Fab (Fab, V domains shown)
VH: EVQLVQSGAEVKKPGASVKVSCKASGYTFTDSEMHWVRQAPGQGLEWIGGVDPETDGAAYNQKFKGRATITRDTSTSTAYLELSSLRSEDTAVYYCTRGYDYDIALDYWGQGTLVTVSS
VL: DIQMTQSPSSLSASVGDRVTITCRASSSVNFIHWYQQKPGKAPKPLISATSNLASGVPSRFSGSGSGTDFTLTISSLQPEDFATYYCQQWSSNPWTFGQGTKVEIK
notes: as for B1
B14: h15H6.v2 variant HC4 (HC-T28R) Fab (Fab, V domains shown)
VH: EVQLVQSGAEVKKPGASVKVSCKASGYRFTDSEMHWVRQAPGQGLEWIGGVDPETDGAAYNQKFKGRATITRDTSTSTAYLELSSLRSEDTAVYYCTRGYDYDYALDYWGQGTLVTVSS
VL: DIQMTQSPSSLSASVGDRVTITCRASSSVNFIHWYQQKPGKAPKPLISATSNLASGVPSRFSGSGSGTDFTLTISSLQPEDFATYYCQQWSSNPWTFGQGTKVEIK
notes: as for B1
B15: h15H6.v2 variant HC6 (HC-E53A) Fab (Fab, V domains shown)
VH: EVQLVQSGAEVKKPGASVKVSCKASGYTFTDSEMHWVRQAPGQGLEWIGGVDPATDGAAYNQKFKGRATITRDTSTSTAYLELSSLRSEDTAVYYCTRGYDYDYALDYWGQGTLVTVSS
VL: DIQMTQSPSSLSASVGDRVTITCRASSSVNFIHWYQQKPGKAPKPLISATSNLASGVPSRFSGSGSGTDFTLTISSLQPEDFATYYCQQWSSNPWTFGQGTKVEIK
notes: as for B1
B16: h15H6.v2 variant HC2 (HC-T30R) Fab (Fab, V domains shown)
VH: EVQLVQSGAEVKKPGASVKVSCKASGYTFRDSEMHWVRQAPGQGLEWIGGVDPETDGAAYNQKFKGRATITRDTSTSTAYLELSSLRSEDTAVYYCTRGYDYDYALDYWGQGTLVTVSS
VL: DIQMTQSPSSLSASVGDRVTITCRASSSVNFIHWYQQKPGKAPKPLISATSNLASGVPSRFSGSGSGTDFTLTISSLQPEDFATYYCQQWSSNPWTFGQGTKVEIK
notes: as for B1
B17: h15H6.v2 variant HC7 (HC-A58F) Fab (Fab, V domains shown)
VH: EVQLVQSGAEVKKPGASVKVSCKASGYTFTDSEMHWVRQAPGQGLEWIGGVDPETDGAFYNQKFKGRATITRDTSTSTAYLELSSLRSEDTAVYYCTRGYDYDYALDYWGQGTLVTVSS
VL: DIQMTQSPSSLSASVGDRVTITCRASSSVNFIHWYQQKPGKAPKPLISATSNLASGVPSRFSGSGSGTDFTLTISSLQPEDFATYYCQQWSSNPWTFGQGTKVEIK
notes: as for B1
B18: combination mutant LC3.HC2 Fab (Fab, V domains shown)
VH: EVQLVQSGAEVKKPGASVKVSCKASGYTFRDSEMHWVRQAPGQGLEWIGGVDPETDGAAYNQKFKGRATITRDTSTSTAYLELSSLRSEDTAVYYCTRGYDYDYALDYWGQGTLVTVSS
VL: DIQMTQSPSSLSASVGDRVTITCRASSSVEFIHWYQQKPGKAPKPLISATSNLASGVPSRFSGSGSGTDFTLTISSLQPEDFATYYCQQWSSNPWTFGQGTKVEIK
notes: Fab

These binders were tested against T1, His-tagged human HtrA1 protease domain (human, UniProt Q92743 161-367) (assay: SPR (BIACORE T200), huHtrA1-PD-His captured by anti-His, Fab injected).
T1 construct: His-tagged protease domain; also called huHtrA1-PD-His; huHtrA1-PD
T1 sequence (Q92743 other isoform, or with tags, fused parts or gaps limits assumed): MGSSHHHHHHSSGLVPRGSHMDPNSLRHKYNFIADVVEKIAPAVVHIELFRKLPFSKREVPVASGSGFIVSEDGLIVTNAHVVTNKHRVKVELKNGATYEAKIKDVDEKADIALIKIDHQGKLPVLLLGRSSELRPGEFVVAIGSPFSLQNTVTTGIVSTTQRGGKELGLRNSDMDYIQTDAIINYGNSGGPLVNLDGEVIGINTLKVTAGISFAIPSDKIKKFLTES
Description: (§1) To determine the binding affinity of selected Fab variants for HtrA1, SPR measurement with a BIACORE™ T200 instrument was performed. Briefly, a series S sensor chip CM5 was activated with 1-EDC and NHS reagents according to the supplier's instructions, and anti-His antibody was coupled to achieve 200-300 response units (RU), then following by blocking un-reacted groups with 1 M ethanolamine. For kinetics measurements, approximately 5 nM of huHtrA1-PD-His was first injected at 10 μl/min flow rate to capture approximately 100 RU at 2 different flow cells (FC), except for FC1 (which served as a reference). Next, 5-fold serial dilutions of Fab in HBS-P buffer (0.01M HEPES pH 7.4, 0.15M NaCl, 0.005% surfactant P20) from low (0.8 nM) to high (50 nM) were injected (flow rate: 30 μl/min). The binding responses on HtrA1 were corrected by subtracting of RU from a blank flow cell. The sensorgram was recorded and subject to reference and buffer subtraction before evaluating by BIACORE® T200 Evaluation Software (version 2.0). Association rates (kₒₙ) and dissociation rates (koff) were calculated using a simple one-to-one Langmuir binding model. The equilibrium dissociation constant (KD) was calculated as the ratio of koff/kₒₙ.
B1 showed a Kd of 0.481 nM, a koff of 0.000212 s⁻¹ and a kon of 441000 M⁻¹ s⁻¹. B2 gave a Kd of 8.42 nM, a koff of 0.00213 s⁻¹ and a kon of 253000 M⁻¹ s⁻¹. For B3, the Kd was 1.55 nM, the koff was 0.000229 s⁻¹ and the kon was 148000 M⁻¹ s⁻¹. Work on B4 yielded a Kd of 0.836 nM, a koff of 0.00019 s⁻¹ and a kon of 228000 M⁻¹ s⁻¹. Binder B5 has a Kd of 1.16 nM, a koff of 0.000397 s⁻¹ and a kon of 343000 M⁻¹ s⁻¹. In the case of B6, the Kd is reported as 0.374 nM, the koff is reported as 0.000171 s⁻¹ and the kon is reported as 456000 M⁻¹ s⁻¹. For B7, the Kd was 0.481 nM, the koff was 0.000246 s⁻¹ and the kon was 511000 M⁻¹ s⁻¹. B8 gave a Kd of 0.618 nM, a koff of 0.00021 s⁻¹ and a kon of 340000 M⁻¹ s⁻¹. For B9, the Kd was 0.642 nM, the koff was 0.000251 s⁻¹ and the kon was 390000 M⁻¹ s⁻¹. B10 was tested, and the Kd was 2.15 nM, the koff was 0.000404 s⁻¹ and the kon was 188000 M⁻¹ s⁻¹. B11 gave a Kd of 0.475 nM, a koff of 0.000165 s⁻¹ and a kon of 347000 M⁻¹ s⁻¹. Work on B12 yielded a Kd of 0.517 nM, a koff of 0.000213 s⁻¹ and a kon of 413000 M⁻¹ s⁻¹. For B13, the Kd was 0.603 nM, the koff was 0.000237 s⁻¹ and the kon was 393000 M⁻¹ s⁻¹. In the case of B14, the Kd is reported as 0.643 nM, the koff is reported as 0.000212 s⁻¹ and the kon is reported as 331000 M⁻¹ s⁻¹. B15 gave a Kd of 2.58 nM, a koff of 0.00026 s⁻¹ and a kon of 101000 M⁻¹ s⁻¹. Binder B16 has a Kd of 0.449 nM, a koff of 0.000164 s⁻¹ and a kon of 366000 M⁻¹ s⁻¹. With B17 the Kd was 0.611 nM, the koff was 0.000165 s⁻¹ and the kon was 271000 M⁻¹ s⁻¹.

Target: T1, His-tagged human HtrA1 protease domain
Assay: as above
Remark: another data set of the same source
Description: These combination mutants included both a variant light chain and a variant heavy chain. BIACORE™ kinetic analysis was performed (as described below in Section C) using the combination mutants.
as §1
For B18, the Kd was 0.302 nM, the koff was 0.000109 s⁻¹ and the kon was 362000 M⁻¹ s⁻¹.
